In publication PMC7515722, “Participation of RecJ in the base excision repair pathway of Deinococcus radiodurans”:

Molecular target: T1, drRecJ R109A (Deinococcus radiodurans, UniProt D0EM60 1-705, R109A)
T1 sequence: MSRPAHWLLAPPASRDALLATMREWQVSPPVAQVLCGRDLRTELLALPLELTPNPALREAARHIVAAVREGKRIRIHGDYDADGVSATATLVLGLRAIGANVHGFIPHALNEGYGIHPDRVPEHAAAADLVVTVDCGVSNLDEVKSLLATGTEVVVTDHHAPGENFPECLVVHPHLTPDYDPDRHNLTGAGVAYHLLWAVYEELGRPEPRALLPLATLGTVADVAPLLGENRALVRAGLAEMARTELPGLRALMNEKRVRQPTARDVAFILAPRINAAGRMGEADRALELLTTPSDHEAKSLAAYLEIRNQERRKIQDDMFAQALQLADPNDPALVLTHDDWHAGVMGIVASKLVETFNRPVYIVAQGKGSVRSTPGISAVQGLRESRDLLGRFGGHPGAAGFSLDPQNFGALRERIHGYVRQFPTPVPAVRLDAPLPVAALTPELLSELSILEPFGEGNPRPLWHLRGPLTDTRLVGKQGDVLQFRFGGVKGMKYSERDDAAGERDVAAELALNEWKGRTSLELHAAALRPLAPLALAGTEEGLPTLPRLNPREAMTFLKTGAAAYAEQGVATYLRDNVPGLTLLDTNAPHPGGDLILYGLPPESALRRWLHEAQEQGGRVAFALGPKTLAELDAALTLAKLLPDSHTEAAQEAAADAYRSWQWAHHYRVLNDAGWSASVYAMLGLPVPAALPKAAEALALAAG
Experiment: EMSA; no Mn2+ added; EMSA: 10 nM 3'-6-FAM ssDNA, 50 mM Tris-HCl pH 7.5, 150 mM KCl, 0.1 mg/ml BSA, 1 mM DTT, 5% glycerol, 20 min at 30 C; 8% native PAGE in TBE; Hill fit
Conditions: protein: recombinant; tags: tag removed with TEV; label: 3'-6-FAM

B1: KY11, 5'-P-dSpacer-(dA)20 (ssDNA)
DNA: AAAAAAAAAAAAAAAAAAAA
modifications: 5'-P-dSpacer (tetrahydrofuran abasic, 5'-dRP mimic) added before A1
  binding signal: 2 fold reduction
